In publication PMC5909925 (Molecular Biology of the Cell, 2018):

What was measured:
[1] = target: T1, full-length mouse His6-αE-catenin (WT) (mouse, UniProt P26231 1-906); test: BLI
T1 sequence (looked up): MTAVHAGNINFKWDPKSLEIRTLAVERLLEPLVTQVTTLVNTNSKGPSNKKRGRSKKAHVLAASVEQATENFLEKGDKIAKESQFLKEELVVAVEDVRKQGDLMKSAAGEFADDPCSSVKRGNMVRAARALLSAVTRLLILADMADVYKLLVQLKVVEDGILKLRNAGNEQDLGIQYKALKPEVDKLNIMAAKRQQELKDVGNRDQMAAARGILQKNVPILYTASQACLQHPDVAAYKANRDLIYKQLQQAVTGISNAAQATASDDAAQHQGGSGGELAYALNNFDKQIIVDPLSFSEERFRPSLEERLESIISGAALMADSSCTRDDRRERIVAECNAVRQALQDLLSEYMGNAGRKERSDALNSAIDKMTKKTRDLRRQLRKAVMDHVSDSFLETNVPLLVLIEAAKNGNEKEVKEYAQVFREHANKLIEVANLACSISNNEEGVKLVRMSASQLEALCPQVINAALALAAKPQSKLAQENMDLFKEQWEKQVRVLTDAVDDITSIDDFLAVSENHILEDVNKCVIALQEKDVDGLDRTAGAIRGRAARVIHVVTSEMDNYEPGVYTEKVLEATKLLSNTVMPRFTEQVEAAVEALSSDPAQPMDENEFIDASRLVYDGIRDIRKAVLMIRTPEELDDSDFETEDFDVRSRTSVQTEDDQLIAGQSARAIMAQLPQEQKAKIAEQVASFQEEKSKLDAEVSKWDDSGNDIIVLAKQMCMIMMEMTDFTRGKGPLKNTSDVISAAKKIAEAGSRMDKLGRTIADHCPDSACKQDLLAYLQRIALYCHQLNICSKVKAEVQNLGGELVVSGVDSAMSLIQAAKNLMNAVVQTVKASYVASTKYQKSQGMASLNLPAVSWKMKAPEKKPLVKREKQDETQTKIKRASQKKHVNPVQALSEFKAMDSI

[2] = target: T2, full-length mouse His6-αE-catenin R551A (mouse, UniProt P26231 1-906, R551A); test: BLI
T2 sequence (looked up): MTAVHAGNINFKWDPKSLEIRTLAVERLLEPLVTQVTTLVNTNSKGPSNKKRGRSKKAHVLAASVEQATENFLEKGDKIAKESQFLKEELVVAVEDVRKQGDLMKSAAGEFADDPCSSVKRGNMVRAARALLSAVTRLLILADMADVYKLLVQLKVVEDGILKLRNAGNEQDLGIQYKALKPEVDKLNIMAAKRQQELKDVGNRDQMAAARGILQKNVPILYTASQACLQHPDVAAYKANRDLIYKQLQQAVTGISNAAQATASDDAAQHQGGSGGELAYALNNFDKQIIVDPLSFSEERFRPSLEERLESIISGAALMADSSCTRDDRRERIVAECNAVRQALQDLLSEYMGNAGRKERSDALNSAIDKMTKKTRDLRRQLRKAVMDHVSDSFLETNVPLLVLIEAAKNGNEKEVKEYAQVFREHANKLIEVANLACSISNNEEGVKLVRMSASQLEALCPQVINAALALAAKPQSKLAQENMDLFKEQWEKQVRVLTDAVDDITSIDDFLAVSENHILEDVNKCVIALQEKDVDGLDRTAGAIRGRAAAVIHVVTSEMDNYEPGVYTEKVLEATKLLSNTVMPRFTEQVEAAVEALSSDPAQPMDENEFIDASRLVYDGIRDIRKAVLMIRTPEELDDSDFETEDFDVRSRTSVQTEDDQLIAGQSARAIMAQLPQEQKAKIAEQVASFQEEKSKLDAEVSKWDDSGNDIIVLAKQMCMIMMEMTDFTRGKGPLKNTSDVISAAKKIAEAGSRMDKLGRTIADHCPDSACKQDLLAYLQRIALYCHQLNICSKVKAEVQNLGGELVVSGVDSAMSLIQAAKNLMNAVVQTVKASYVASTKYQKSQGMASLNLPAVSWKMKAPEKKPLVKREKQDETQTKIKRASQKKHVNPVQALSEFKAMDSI

Kd [1]: 1800 nM
Kd [2]: 140 nM
B1: constitutively active vinculin head domain (VHD, residues 1-252) (domain or fragment, human, UniProt P18206 1-252, looked up)
chain: MPVFHTRTIESILEPVAQQISHLVIMHEEGEVDGKAIPDLTAPVAAVQAAVSNLVRVGKETVQTTEDQILKRDMPPAFIKVENACTKLVQAAQMLQSDPYSVPARDYLIDGSRGILSGTSDLLLTFDEAEVRKIIRVCKGILEYLTVAEVVETMEDLVTYTKNLGPGMTKMAKMIDERQQELTHQEHRVMLVNSMNTVKELLPVLISAMKIFVTTKNSKNQGIEEALKNRNFTVEKMSAEINEIIRVLQLTS
